Target: the molecule itself
Assay: SEC-SAXS; Shodex KW-404 column coupled to SAXS (B21, Diamond); 12 mg/mL hPAH injected; 20 mM Hepes pH 7.0, 200 mM NaCl; 20 °C; no L-Phe (hPAH^free); molecular mass from the Porod volume

B1: Recombinant full-length wild-type human phenylalanine hydroxylase (His6-hPAH) (enzyme, UniProt P00439 1-452, looked up)
chain: MSTAVLENPGLGRKLSDFGQETSYIEDNCNQNGAISLIFSLKEEVGALAKVLRLFEENDVNLTHIESRPSRLKKDEYEFFTHLDKRSLPALTNIIKILRHDIGATVHELSRDKKKDTVPWFPRTIQELDRFANQILSYGAELDADHPGFKDPVYRARRKQFADIAYNYRHGQPIPRVEYMEEEKKTWGTVFKTLKSLYKTHACYEYNHIFPLLEKYCGFHEDNIPQLEDVSQFLQTCTGFRLRPVAGLLSSRDFLGGLAFRVFHCTQYIRHGSKPMYTPEPDICHELLGHVPLFSDRSFAQFSQEIGLASLGAPDEYIEKLATIYWFTVEFGLCKQGDSIKAYGAGLLSSFGELQYCLSEKPKLLPLELEKTAIQNYTVTEFQPLYYVAESFNDAKEKVRNFAATIPRPFSVRYDPYTQRIEVLDNTQQLKILADSINSEIGILCSALQKIK
notes: human phenylalanine hydroxylase, full-length wild type; The same protein was measured without L-Phe (hPAH^free) and with 1 mM L-Phe (hPAH^Phe); also called hPAH^free; hPAH^Phe; source: E. coli Top10 (pTrcHis-hPAH plasmid), purified (Ni-NTA; PD-10 into SEC buffer, then the beamline SEC column); not shown: His6 (with a 26-amino acid linker), N-terminal, kept
- stoichiometry N: 4

— publication PMC6754429, “Structure of full-length wild-type human phenylalanine hydroxylase by small angle X-ray scattering reveals substrate-induced conformational stability” (Scientific Reports, 2019)
